T1: recombinant human CD63 second extracellular domain (Ala 103-Val 203) fused with a polyhistidine tag at the … (human, UniProt P08962 103-203)
T1 construct: range 103-203; Bought from Creative BioMart; also called human His-tagged CD63; soluble CD63
T1 sequence (looked up): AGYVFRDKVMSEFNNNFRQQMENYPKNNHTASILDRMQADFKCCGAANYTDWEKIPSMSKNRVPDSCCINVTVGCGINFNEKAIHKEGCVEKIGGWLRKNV


Assays:
[1] = molecular target: T1, recombinant human CD63 second …; test: BLI (Octet HTX), IgG on anti-human Fc sensors, His-tagged CD63 as analyte, 30 C
Description: Association and dissociation kinetics of human His-tagged CD63 (100 nM, 50 nM, 25 nM and 12.5 nM, concentrations were calculated using the predicted molecular weight of 13 kDa) were determined in Sample Diluent (ForteBio), using an association time of 1000 s, a dissociation time of 2000 s and a shaker speed of 1000 rpm at 30° C. Data traces were corrected using a reference sensor exposed to Sample Diluent only during the association and dissociation steps, the Y-axis was aligned to baseline and Inter-step correction as well as Savitzky-Golay filtering were applied. The association rate constant Kₒₙ (1/Ms), dissociation rate constant Kdis (1/s) and equilibrium dissociation constant KD (M) were determined with ForteBio Data Analysis Software v8.1, using the 1:1 model and a global full fit.

[2] = molecular target: T1, recombinant human CD63 second …; test: ELISA: antibody (1 µg/mL) captured on goat anti-human IgG, recombinant human His-tagged CD63 serially diluted (x axis, µg/mL CD63), detected with anti-poly-histidine-biotin, OD 405 nm
From the text: To improve efficacy of ADCs, a bispecific ADC was generated that specifically binds to a target protein (T) with one Fab-arm, while its second Fab-arm binds an effector protein (E), that facilitates internalization and lysosomal delivery of the cytotoxic payload. The resulting bsADC should induce cytotoxicity in cells that express both T and E. Some cytotoxicity may also be induced in cells that express T but not E, whereas the bsADC should not induce cytotoxicity in cells that express E but not TCD63 is used as effector protein (E). To ensure tumor specificity of the bsAb, the anti-CD63 arm (E) of the bsAb should preferably not bind and internalize in the absence of the tumor-specific arm (T) or only do this to a very limited degree. […] In short, ELISA plates (Greiner) were coated overnight at 4° C. with 0.8 μg/mL goat anti-human IgG (Jackson). […] Serially diluted (1-0.0005 μg/mL) recombinant human CD63 (Creative Biomart) was added followed by 1 μg/mL mouse anti-poly-histidine-biotin (R&D). The reaction was visualized using ABTS and stopped with oxalic acid. […] at 405 nm was measured and depicted using Graph Pad Prism 6 software.

| Binder | Kd [1] [nM] | koff [1] [s⁻¹] | kon [1] [M⁻¹ s⁻¹] | EC50 (read off the curve) [2] [µg/mL] |
| --- | --- | --- | --- | --- |
| wild type IgG1-CD63 (antibody, V domains shown, Mouse 2192 variable domains on human IgG1 constant domains (heavy chain with K409R or F405L) and a human light chain constant domain; also called wt IgG1-CD63; WT) VH: EVQLQQSGPELVKPGASVKMSCKASGYTFTSYVMHWVRQTPGQGLEWIGYITPYNDGTKYNEKFKGKATLTSDKSSSTAYMELSSLTSEDSAVYYCVGGDNYYYAMDYWGQGTSVTVSA VL: NIMVTQSPSSLAVSAGEKVTMSCKSSQSVLYSSNQKNYLAWYQQKPGQSPKLLIYWASTRVSGVPDRFTGSGSGTDFTLTISRVQAEDLAVYYCHQYFSSFTFGSGTKLEIKR | 0.54 | 0.00011 | 200000 | ~0.01 |
| IgG1-CD63 affinity variant G76H (antibody, V domains shown, As m1 with one histidine substitution) VH: EVQLQQSGPELVKPGASVKMSCKASGYTFTSYVMHWVRQTPGQGLEWIGYITPYNDHTKYNEKFKGKATLTSDKSSSTAYMELSSLTSEDSAVYYCVGGDNYYYAMDYWGQGTSVTVSA VL: NIMVTQSPSSLAVSAGEKVTMSCKSSQSVLYSSNQKNYLAWYQQKPGQSPKLLIYWASTRVSGVPDRFTGSGSGTDFTLTISRVQAEDLAVYYCHQYFSSFTFGSGTKLEIKR | 17 | 0.00038 | 22000 |  |
| IgG1-CD63 affinity variant LV49H (antibody, V domains shown, As m1 with one histidine substitution in the light chain) VH: EVQLQQSGPELVKPGASVKMSCKASGYTFTSYVMHWVRQTPGQGLEWIGYITPYNDGTKYNEKFKGKATLTSDKSSSTAYMELSSLTSEDSAVYYCVGGDNYYYAMDYWGQGTSVTVSA VL: NIMVTQSPSSLAVSAGEKVTMSCKSSQSHLYSSNQKNYLAWYQQKPGQSPKLLIYWASTRVSGVPDRFTGSGSGTDFTLTISRVQAEDLAVYYCHQYFSSFTFGSGTKLEIKR | 27 |  |  |  |
| IgG1-CD63 affinity variant LY51H (antibody, V domains shown, As m1 with one histidine substitution in the light chain) VH: EVQLQQSGPELVKPGASVKMSCKASGYTFTSYVMHWVRQTPGQGLEWIGYITPYNDGTKYNEKFKGKATLTSDKSSSTAYMELSSLTSEDSAVYYCVGGDNYYYAMDYWGQGTSVTVSA VL: NIMVTQSPSSLAVSAGEKVTMSCKSSQSVLHSSNQKNYLAWYQQKPGQSPKLLIYWASTRVSGVPDRFTGSGSGTDFTLTISRVQAEDLAVYYCHQYFSSFTFGSGTKLEIKR | 20 | 0.0019 | 98000 |  |
| IgG1-CD63 affinity variant LQ47 (antibody, V domains shown, As m1 with one histidine substitution in the light chain) VH: EVQLQQSGPELVKPGASVKMSCKASGYTFTSYVMHWVRQTPGQGLEWIGYITPYNDGTKYNEKFKGKATLTSDKSSSTAYMELSSLTSEDSAVYYCVGGDNYYYAMDYWGQGTSVTVSA VL: NIMVTQSPSSLAVSAGEKVTMSCKSSHSVLYSSNQKNYLAWYQQKPGQSPKLLIYWASTRVSGVPDRFTGSGSGTDFTLTISRVQAEDLAVYYCHQYFSSFTFGSGTKLEIKR | 0.37 | 6.7e-05 | 180000 |  |
| IgG1-CD63 affinity variant LS52 (antibody, V domains shown, As m1 with one histidine substitution in the light chain) VH: EVQLQQSGPELVKPGASVKMSCKASGYTFTSYVMHWVRQTPGQGLEWIGYITPYNDGTKYNEKFKGKATLTSDKSSSTAYMELSSLTSEDSAVYYCVGGDNYYYAMDYWGQGTSVTVSA VL: NIMVTQSPSSLAVSAGEKVTMSCKSSQSVLYHSNQKNYLAWYQQKPGQSPKLLIYWASTRVSGVPDRFTGSGSGTDFTLTISRVQAEDLAVYYCHQYFSSFTFGSGTKLEIKR | 0.36 | 6.3e-05 | 170000 |  |

The next lines start with the values.

| Kd [1] [nM] | koff [1] [s⁻¹] | kon [1] [M⁻¹ s⁻¹] | EC50 (read off the curve) [2] [µg/mL] | Binder |
| --- | --- | --- | --- | --- |
| 2 | 0.00039 | 190000 |  | anti-CD63-LN54H (antibody, V domains shown) VH: EVQLQQSGPELVKPGASVKMSCKASGYTFTSYVMHWVRQTPGQGLEWIGYITPYNDGTKYNEKFKGKATLTSDKSSSTAYMELSSLTSEDSAVYYCVGGDNYYYAMDYWGQGTSVTVSA VL: NIMVTQSPSSLAVSAGEKVTMSCKSSQSVLYSSHQKNYLAWYQQKPGQSPKLLIYWASTRVSGVPDRFTGSGSGTDFTLTISRVQAEDLAVYYCHQYFSSFTFGSGTKLEIKR |
| 4.1 | 0.00069 | 170000 | ~0.06 | IgG1-CD63N74H (antibody, V domains shown, also called anti-CD63-N74H) VH: EVQLQQSGPELVKPGASVKMSCKASGYTFTSYVMHWVRQTPGQGLEWIGYITPYHDGTKYNEKFKGKATLTSDKSSSTAYMELSSLTSEDSAVYYCVGGDNYYYAMDYWGQGTSVTVSA VL: NIMVTQSPSSLAVSAGEKVTMSCKSSQSVLYSSNQKNYLAWYQQKPGQSPKLLIYWASTRVSGVPDRFTGSGSGTDFTLTISRVQAEDLAVYYCHQYFSSFTFGSGTKLEIKR |
| 7.3 | 0.0011 | 150000 |  | IgG1-CD63 affinity variant T71H (antibody, V domains shown) VH: EVQLQQSGPELVKPGASVKMSCKASGYTFTSYVMHWVRQTPGQGLEWIGYIHPYNDGTKYNEKFKGKATLTSDKSSSTAYMELSSLTSEDSAVYYCVGGDNYYYAMDYWGQGTSVTVSA VL: NIMVTQSPSSLAVSAGEKVTMSCKSSQSVLYSSNQKNYLAWYQQKPGQSPKLLIYWASTRVSGVPDRFTGSGSGTDFTLTISRVQAEDLAVYYCHQYFSSFTFGSGTKLEIKR |
| 0.78 | 0.00016 | 200000 |  | IgG1-CD63 affinity variant Y46 (antibody, V domains shown, As m1 with one histidine substitution) VH: EVQLQQSGPELVKPGASVKMSCKASGHTFTSYVMHWVRQTPGQGLEWIGYITPYNDGTKYNEKFKGKATLTSDKSSSTAYMELSSLTSEDSAVYYCVGGDNYYYAMDYWGQGTSVTVSA VL: NIMVTQSPSSLAVSAGEKVTMSCKSSQSVLYSSNQKNYLAWYQQKPGQSPKLLIYWASTRVSGVPDRFTGSGSGTDFTLTISRVQAEDLAVYYCHQYFSSFTFGSGTKLEIKR |
| 20 | 0.0014 | 70000 |  | IgG1-CD63 affinity variant Y121H (antibody, V domains shown, As m1 with one histidine substitution) VH: EVQLQQSGPELVKPGASVKMSCKASGYTFTSYVMHWVRQTPGQGLEWIGYITPYNDGTKYNEKFKGKATLTSDKSSSTAYMELSSLTSEDSAVYYCVGGDNHYYAMDYWGQGTSVTVSA VL: NIMVTQSPSSLAVSAGEKVTMSCKSSQSVLYSSNQKNYLAWYQQKPGQSPKLLIYWASTRVSGVPDRFTGSGSGTDFTLTISRVQAEDLAVYYCHQYFSSFTFGSGTKLEIKR |
| 0.67 | 0.00014 | 210000 |  | IgG1-CD63 affinity variant Y79H (antibody, V domains shown, As m1 with one histidine substitution) VH: EVQLQQSGPELVKPGASVKMSCKASGYTFTSYVMHWVRQTPGQGLEWIGYITPYNDGTKHNEKFKGKATLTSDKSSSTAYMELSSLTSEDSAVYYCVGGDNYYYAMDYWGQGTSVTVSA VL: NIMVTQSPSSLAVSAGEKVTMSCKSSQSVLYSSNQKNYLAWYQQKPGQSPKLLIYWASTRVSGVPDRFTGSGSGTDFTLTISRVQAEDLAVYYCHQYFSSFTFGSGTKLEIKR |
| 3.3 | 0.00057 | 170000 |  | IgG1-CD63 affinity variant P72H (antibody, V domains shown) VH: EVQLQQSGPELVKPGASVKMSCKASGYTFTSYVMHWVRQTPGQGLEWIGYITHYNDGTKYNEKFKGKATLTSDKSSSTAYMELSSLTSEDSAVYYCVGGDNYYYAMDYWGQGTSVTVSA VL: NIMVTQSPSSLAVSAGEKVTMSCKSSQSVLYSSNQKNYLAWYQQKPGQSPKLLIYWASTRVSGVPDRFTGSGSGTDFTLTISRVQAEDLAVYYCHQYFSSFTFGSGTKLEIKR |
| 0.54 | 0.00011 | 200000 |  | IgG1-CD63 affinity variant Y127 (antibody, V domains shown, As m1 with one histidine substitution) VH: EVQLQQSGPELVKPGASVKMSCKASGYTFTSYVMHWVRQTPGQGLEWIGYITPYNDGTKYNEKFKGKATLTSDKSSSTAYMELSSLTSEDSAVYYCVGGDNYYYAMDHWGQGTSVTVSA VL: NIMVTQSPSSLAVSAGEKVTMSCKSSQSVLYSSNQKNYLAWYQQKPGQSPKLLIYWASTRVSGVPDRFTGSGSGTDFTLTISRVQAEDLAVYYCHQYFSSFTFGSGTKLEIKR |
